Measured values from the supplement of paper PMC10724198.
± gives the standard deviation of the averaged measurements.

Test system: Saccharomyces cerevisiae
Test: protein stability index of tFT-peptide fusion (C-terminal peptide) (PSI (0-1 scale)); higher = more stable (slower turnover)
Details: genetic background: wild type; temperature: 30 C
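Further: PSI is a weighted mean of sequencing reads over stability bins, variants kept only with over 10 reads, mCherry proximal and sfGFP distal, peptide attached via GGGS linker.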

Sequence	protein stability index
PPPRSPLLPSPL	0.687 ± 0.019
PPPRSPPAPPPP	0.774 ± 0.052
PPPRSSLRLPSA	0.652 ± 0.063
PPPRTPPDNHPN	0.7256 ± 0.0047
PPPSAPLPPSPP	0.6424 ± 0.0043
PPPSPNPRENPK	0.671 ± 0.0071
PPPSPPCTPSLI	0.696 ± 0.036
PPPSPPPSLSLP	0.702 ± 0.025
PPPSPSPPPAPG	0.6941 ± 0.006
PPPSPSSPPLSL	0.717 ± 0.099
PPPSSAPPPTPP	0.607 ± 0.15
PPPSSPSPPRCR	0.733 ± 0.1
PPPTSSPSPSIL	0.741 ± 0.07
PPPVLPSPRSDP	0.667 ± 0.17
PPPVPPPAPLLS	0.642 ± 0.074
PPPVPPSPSPPP	0.684 ± 0.013
PPPWPLPPGRLP	0.703 ± 0.059
PPPYHPDATFTT	0.7063 ± 0.0025
PPQPRLTPSPPL	0.697 ± 0.028
PPRASQSLLAVP	0.6555 ± 0.0035
PPRATPPFPLPP	0.648 ± 0.031
PPRLPPLPSSLL	0.721 ± 0.033
PPRPAPPPPPAL	0.723 ± 0.11
PPRPHPPPRPSS	0.74 ± 0.048
PPRPLRAEGLES	0.727 ± 0.028
PPRPPPLPPSPP	0.685 ± 0.094

Sequence	protein stability index
PPRPPPLSPAPP	0.7 ± 0.069
PPRPPPPPRSTS	0.672 ± 0.024
PPRPPSPPPPPS	0.779 ± 0.16
PPRPSPPPPPRS	0.735 ± 0.09
PPRRLPALPSPL	0.774 ± 0.014
PPRRSDSQQFSA	0.676 ± 0.029
PPRSLPPPPFPF	0.749 ± 0.01
PPRSLPPSPPSP	0.7384 ± 0.0047
PPRSPPLPPAPT	0.762 ± 0.013
PPRSPPLPPGLP	0.558 ± 0.039
PPRSPPPPRLLL	0.724 ± 0.048
PPRSRPLPALPS	0.647 ± 0.044
PPRYLCLGPGPC	0.691 ± 0.03
PPSGGYFSTCPP	0.731 ± 0.03
PPSKRSKKPFRI	0.698 ± 0.022
PPSLLFPLPLAS	0.649 ± 0.11
PPSLPPPPPVHP	0.648 ± 0.034
PPSLPRFTPRPA	0.718 ± 0.036
PPSLPSVRLSLS	0.685 ± 0.027
PPSLRPSSSPPI	0.724 ± 0.022
PPSLSPFSACLS	0.669 ± 0.064
PPSNPLTRAQCL	0.737 ± 0.14
PPSPDPPPPDLS	0.649 ± 0.017
PPSPEPGSPHRF	0.734 ± 0.018
PPSPHLVPYYLP	0.677 ± 0.014
PPSPLLVTLPPA	0.704 ± 0.022

Sequence	protein stability index
PPSPPFDFSPQN	0.716 ± 0.014
PPSPPHPIRPPA	0.713 ± 0.025
PPSPPIPPPPAP	0.732 ± 0.053
PPSPPPGTCPPD	0.617 ± 0.064
PPSPPPPAPPRA	0.713 ± 0.023
PPSPPPPLSLSP	0.6853 ± 0.0033
PPSPPPPPPPPL	0.7 ± 0.032
PPSPSNPNPLRP	0.726 ± 0.019
PPSPSSLLFLLS	0.7043 ± 0.0028
PPSPTPPALPAP	0.688 ± 0.018
PPSRPLPFLLPH	0.696 ± 0.0091
PPSSDRPSIILP	0.691 ± 0.081
PPSSPPSVLPPV	0.666 ± 0.021
PPSSTAALPPLP	0.609 ± 0.066
PPSVTLSEMTTG	0.642 ± 0.025
PPSWASLRLPPT	0.708 ± 0.072
PPTFPPLLSPPP	0.661 ± 0.025
PPTIPLRTLPTS	0.703 ± 0.018
PPTPKHTPHDTT	0.694 ± 0.031
PPTPLAASPRPS	0.722 ± 0.12
PPTPPSLPPLSP	0.665 ± 0.086
PPTPPTSHPSPR	0.696 ± 0.027
PPTPTPPHPPPP	0.611 ± 0.015
PPVKQKEKGTAT	0.701 ± 0.021
PPVPPPPRLPRP	0.727 ± 0.019
PPWPPLVQPVSL	0.708 ± 0.066

Sequence	protein stability index
PPYRVVLPLFVP	0.508 ± 0.033
PPYSQPSSTPPH	0.706 ± 0.092
PQDRGICQIIES	0.632 ± 0.017
PQDYITTCQHPT	0.651 ± 0.079
PQFRHFWALSTT	0.707 ± 0.015
PQPLFLPSPLSR	0.702 ± 0.06
PQPLYAPFPPPL	0.789 ± 0.096
PQPPPPPPLSVS	0.673 ± 0.0087
PQPPRPARLCFP	0.705 ± 0.028
PQRTPPRPNKPP	0.556 ± 0.013
PQSCNILRGLES	0.708 ± 0.056
PRACPSSPASSL	0.722 ± 0.024
PRALPSPPPPPP	0.661 ± 0.13
PRAPHATGYNRR	0.7016 ± 0.0069
PRAPPLPPSPSP	0.668 ± 0.011
PRARHSVPNIQS	0.694 ± 0.042
PRGAVGSRPAGR	0.677 ± 0.034
PRGTFARSRSTG	0.7156 ± 0.0027
PRGYRGNCAYDV	0.636 ± 0.083
PRHPPTHLIPKT	0.615 ± 0.034
PRLAPLTLLPPS	0.7051 ± 0.0027
PRLPPPPHPSRP	0.698 ± 0.031
PRNTPPRRAPTR	0.6485 ± 0.0031
